From patent publication US20090042805

Experiments:
Z-VDVAD-FMK = molecular target: T1, Z-VDVAD-FMK
T1 chain: VDVAD

Ac-VDVAD-cho = molecular target: T2, Ac-VDVAD-cho
T2 chain: VDVAD

B1: Human recombinant caspase-2 (protein)
chain: GPVCLQVKPCTPEFYQTHFQLAYRLQSRPRGLALVLSNVHFTGEKELEFRSGGDVDHSTLVTLFKLLGYDVHVLCDQTAQEMQEKLQNFAQLPAHRVTDSCIVALLSHGVEGAIYGVDGKLLQLQEVFQLFDNANCPSLQNKPKMFFIQACRGDETDRGVDQQDGKNHAGSPGCEESDAGKEKLPKMRLPTRSDMICGYACLKGTAAMRNTKRGSWYIEALAQVFSERACDMHVADMLVKVNALIKDREGYAPGTEFHRCKEMSEYCSTLCRHLYLFPGHPPT
in vitro VDVAD-AMC cleavage by recombinant caspase-2 (SEQ8): is blocked by SEQ8 | in vitro VDVAD-AMC cleavage by recombinant caspase-2 (Z-VDVAD-FMK): as efficiently as commercially available caspase-2 reversible (Ac-VDVAD-Cho) or irreversible (Z-VDVAD-FMK) inhibitors | in vitro VDVAD-AMC cleavage by recombinant caspase-2 (Ac-VDVAD-cho): as efficiently as commercially available caspase-2 reversible (Ac-VDVAD-Cho) or irreversible (Z-VDVAD-FMK) inhibitors
